# Where “and” joins values, the source holds several entries; their conditions need not be identical. Equal entries are not always repeated.
# Assays:
# [1] = target: T1, Solute carrier family 22 member 1 (Rattus norvegicus, UniProt Q63089); test: TP_TRANSPORTER: uptake in Xenopus laevis oocytes; assay type: functional, cell-based; settings: oocyte
# T1 sequence (Q63089 whole entry): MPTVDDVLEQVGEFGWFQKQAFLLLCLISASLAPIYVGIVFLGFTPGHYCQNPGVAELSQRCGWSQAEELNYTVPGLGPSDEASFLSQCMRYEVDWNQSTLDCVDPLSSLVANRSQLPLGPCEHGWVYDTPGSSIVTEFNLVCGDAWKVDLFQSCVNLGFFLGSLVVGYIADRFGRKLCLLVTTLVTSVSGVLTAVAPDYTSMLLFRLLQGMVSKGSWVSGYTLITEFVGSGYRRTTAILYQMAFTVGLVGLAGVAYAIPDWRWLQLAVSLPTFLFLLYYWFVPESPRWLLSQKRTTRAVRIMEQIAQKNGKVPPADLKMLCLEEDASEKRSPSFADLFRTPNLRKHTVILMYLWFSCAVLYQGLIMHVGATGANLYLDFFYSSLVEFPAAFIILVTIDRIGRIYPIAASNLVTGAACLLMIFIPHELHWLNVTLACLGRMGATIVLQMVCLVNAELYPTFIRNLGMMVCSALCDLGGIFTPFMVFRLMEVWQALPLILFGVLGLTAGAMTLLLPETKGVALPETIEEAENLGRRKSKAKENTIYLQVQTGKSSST
# [2] = target: T1, Solute carrier family 22 member 1; test: (§1) TP_TRANSPORTER: uptake (electrogenesis) in Xenopus laevis oocytes; assay type: functional, cell-based; settings: oocyte
# [3] = substrate: CC(=O)OCC[N+](C)(C)C; test: as §1; assay type: functional, cell-based, Oocyte
# [4] = substrate: NCCc1c[nH]c2ccc(O)cc12; test: as §1; assay type: functional, cell-based, Oocyte
# [5] = substrate: NCCc1c[nH]cn1; test: cells, lysate or membranes named
# [6] = substrate: NCCc1ccc(O)c(O)c1; test: cells, lysate or membranes named
molecule,measurement,setting,value
C=C[C@H]1C[N@@]2CC[C@H]1C[C@@H]2[C@@H](O)c1ccnc2ccc(OC)cc12 [QUINIDINE],Activity,[1],is not a substrate [-]
C=C[C@H]1C[N@@]2CC[C@H]1C[C@H]2[C@H](O)c1ccnc2ccc(OC)cc12 [QUININE],Activity,[1],is not a substrate [-]
NC[C@H](O)c1ccc(O)c(O)c1 [NOREPINEPHRINE],Activity,[2],substrate [+]
Solute carrier family 22 member 1 (Rattus norvegicus) (protein) MPTVDDVLEQVGEFGWFQKQAFLLLCLISASLAPIYVGIVFLGFTPGHYCQNPGVAELSQRCGWSQAEELNYTVPGLGPSDEASFLSQCMRYEVDWNQSTLDCVDPLSSLVANRSQLPLGPCEHGWVYDTPGSSIVTEFNLVCGDAWKVDLFQSCVNLGFFLGSLVVGYIADRFGRKLCLLVTTLVTSVSGVLTAVAPDYTSMLLFRLLQGMVSKGSWVSGYTLITEFVGSGYRRTTAILYQMAFTVGLVGLAGVAYAIPDWRWLQLAVSLPTFLFLLYYWFVPESPRWLLSQKRTTRAVRIMEQIAQKNGKVPPADLKMLCLEEDASEKRSPSFADLFRTPNLRKHTVILMYLWFSCAVLYQGLIMHVGATGANLYLDFFYSSLVEFPAAFIILVTIDRIGRIYPIAASNLVTGAACLLMIFIPHELHWLNVTLACLGRMGATIVLQMVCLVNAELYPTFIRNLGMMVCSALCDLGGIFTPFMVFRLMEVWQALPLILFGVLGLTAGAMTLLLPETKGVALPETIEEAENLGRRKSKAKENTIYLQVQTGKSSST,Km,[3],46.8 µM
same,Km,[4],37.6 µM
same,Km,[5],98.6 µM
same,Km,[6],19.4 µM and 51 µM
